Results published in paper PMC10342119, “ABF1 Positively Regulates Rice Chilling Tolerance via Inducing Trehalose Biosynthesis” (International Journal of Molecular Sciences, 2023).

T1: His-SAPK10 (rice (Oryza sativa L.), UniProt Q75H77 1-362)
T1 construct: SAPK10, SnRK2-type Ser/Thr protein kinase of rice; the CDS was fused into pET-28a; source: E. coli Transetta (DE3), purified (6x His-Tagged Protein Purification Kit); not shown: His, N-terminal, kept
T1 sequence (looked up): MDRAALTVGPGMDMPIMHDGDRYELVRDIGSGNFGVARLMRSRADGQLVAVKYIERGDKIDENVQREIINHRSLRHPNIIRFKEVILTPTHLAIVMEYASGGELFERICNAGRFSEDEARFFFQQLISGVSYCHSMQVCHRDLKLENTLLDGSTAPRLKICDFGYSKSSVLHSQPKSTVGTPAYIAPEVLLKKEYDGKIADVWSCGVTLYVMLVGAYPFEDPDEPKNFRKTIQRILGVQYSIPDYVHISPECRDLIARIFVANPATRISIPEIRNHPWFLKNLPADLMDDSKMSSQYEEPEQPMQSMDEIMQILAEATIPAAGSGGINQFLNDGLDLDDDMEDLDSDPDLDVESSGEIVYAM

T2: GST-ABF1 (Oryza sativa L. ssp. japonica cv …, UniProt Q0JHF1 1-266)
T2 sequence: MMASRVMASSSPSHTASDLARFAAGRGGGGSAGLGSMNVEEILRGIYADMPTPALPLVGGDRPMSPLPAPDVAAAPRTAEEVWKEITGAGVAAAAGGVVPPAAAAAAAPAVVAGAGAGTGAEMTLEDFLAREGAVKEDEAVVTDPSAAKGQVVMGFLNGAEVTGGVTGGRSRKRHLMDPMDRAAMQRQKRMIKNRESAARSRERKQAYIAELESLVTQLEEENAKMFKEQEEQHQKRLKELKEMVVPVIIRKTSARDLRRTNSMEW


Key:
[1] = molecular target: T1, His-SAPK10; assay: pull-down; GST pull-down on glutathione magnetic agarose beads; 50 mM Tris-HCl pH 7.5, 5% glycerol, 1 mM EDTA, 1 mM DTT, 1 mM PMSF, 0.01% Nonidet P-40, 150 mM KCl; 4 °C for 2 h; blots with anti-His and anti-GST; details: both partners purified
[2] = molecular target: T2, GST-ABF1; assay: EMSA; binding lost with unlabeled probe; EMSA/gel-shift binding buffer (composition, pH and temperature not stated); 20 fmol biotin-labeled probe; 6% acrylamide gel; details: protein: recombinant; tags: N-terminal GST (pGEX-4T-1); chain copies: 2; label: biotin; blunt

binding result [1] | Binder | binding result [2]
binds | GST-ABF1 (natural protein, rice (Oryza sativa L.), UniProt Q0JHF1 1-266, looked up, ABF1 (bZIP12), bZIP transcription factor of rice; the CDS was fused into pGEX-4T-1; also called bZIP12; source: E. coli Transetta (DE3), purified (GST-Sefinose Kit); not shown: GST, N-terminal, kept) MMASRVMASSSPSHTASDLARFAAGRGGGGSAGLGSMNVEEILRGIYADMPTPALPLVGGDRPMSPLPAPDVAAAPRTAEEVWKEITGAGVAAAAGGVVPPAAAAAAAPAVVAGAGAGTGAEMTLEDFLAREGAVKEDEAVVTDPSAAKGQVVMGFLNGAEVTGGVTGGRSRKRHLMDPMDRAAMQRQKRMIKNRESAARSRERKQAYIAELESLVTQLEEENAKMFKEQEEQHQKRLKELKEMVVPVIIRKTSARDLRRTNSMEW | 
 | TPS2 promoter probe (P3, G-box) (dsDNA) DNA 1: CAGACCTGACGTCAGACGACGATTAGCCACGTGGCACACAGTGCACCCGACACGACGAA DNA 2: TTCGTCGTGTCGGGTGCACTGTGTGCCACGTGGCTAATCGTCGTCTGACGTCAGGTCTG | binds
